Assay results from patent US9168297B2, “Regulation of skin pigmentation by neuregulin-1 (NRG-1)” (The United States of America, as Represented by the …, priority 2010, dated 2015).

Assays:
ERBB4 = ERBB4 protein level by western blotting in melanocytes; format: cell-based, human; details: HEM-LP and HEM-DP, NRG-1 50 ng/ml, 5 days
Description: (§1) FIGS. 7A and 7B are digital images illustrating expression of ERBBs after NRG-1 treatment. FIG. 7A) HEM-LP and HEM-DP melanocytes were treated with or without NRG-1 (50 ng/ml) for 5 days, and levels of ERBB2, ERBB3 or ERBB4 were detected by western blotting. Results shown are representative of three studies. FIG. 7B) Expression of ERBB2 was examined in HEM-LP and in HEM-DP melanocytes after 1 or 9 days or treatment with NRG-1 compared to vehicle-treated controls; the results are representative of two independent studies.
(§2) Fibroblast cultures in 100-mm dishes were solubilized in appropriate volumes of M-PER mammalian protein extraction reagent (Pierce Biotechnology, Rockford, Ill.) containing a Protease Inhibitor mixture (Roche, Mannheim, Germany) and phosphatase inhibitors. The protein concentration of each extract was measured using a BCA protein assay kit (Pierce, Rockford, Ill.). Cell extracts (20 μg) were separated on 8-16% gradient SDS polyacrylamide gels (Invitrogen, Carlsbad, Calif.), after which proteins were transferred to PVDF membranes (Invitrogen, Carlsbad, Calif.). […] Antigen-antibody complexes were detected using an ECL-plus Western blotting detection system (GE Healthcare). […]

[1] = tested on: MelanoDerm 3-D reconstructed human skin; test: Pigmentation of 3-D reconstructed skin (MelanoDerm), L value and microscopy; format: cell-based; details: for ΔL (pigmentation, L value): day 9, vs vehicle
Description: Light, Medium, and Dark human epidermal equivalents (MelanoDerm®) were purchased from MatTek Corp. (Ashland, Mass.). MelanoDerms were grown at the air/liquid interface of the maintenance medium MEL-LLMM (MatTek Corp.), and the culture medium was renewed every 2 days. Where noted, MelanoDerms were treated for 9 days with 50 ng/ml NRG-1 (rhNRG-1-β1, R&D Systems, Minneapolis, Minn.) prepared in phosphate-buffered saline (PBS) with 0.1% bovine serum albumin (BSA) and MelanoDerm maintenance medium. The same concentrations of PBS and BSA were used for mock-treated controls.
For the studies where the MelanoDerms were treated with NRG-1 and/or various pan-ERBB inhibitors, Dark MelanoDerms were first incubated with a pan-ERBB inhibitor (0.5 μM Compound 39, EMD Chemicals, Gibbistown, N.J. or 2 μM CI-1033, Selleck Chemicals LLC, US) for 30 minutes or with vehicle (DMSO) only before treatment with 50 ng/ml NRG-1; identical amounts of DMSO (0.02%) were added to all samples. Treatment was renewed every 2 days in fresh medium and was continued for 9 days.
Three dimensional (3-D) reconstructed human skin models (termed MelanoDerms) were used to test the effects of NRG-1 on skin pigmentation. Three types of MelanoDerm, ‘light’ ([…]), ‘medium’ ([…]) and ‘dark’ ([…]), were used to compare the effects of NRG-1 on those three types of skin. In preliminary studies to optimize the concentration of NRG-1 (from 10 to 200 ng/ml were tested, FIG. 10), 50 ng/ml was chosen which was consistent with concentrations of NRG-1 used for other cell types by other groups. NRG-1 was added to the MelanoDerm media at 50 ng/ml and the medium was replenished every 2 days. On day 9, the MelanoDerms treated with NRG-1 were compared to controls treated only with vehicle. Pigmentation of the skin was assessed using the L value, higher L values indicating lighter colors. […] It should be noted that relatively small changes in ΔL can represent relatively large changes in visible skin color. For example, the mean L value of White/Caucasian skin is 67, that of Asians, Pacific-Islanders is 65, that of Hispanic/Latinos is 64, and that of American Indian/Alaska Native is 62. […] In the vehicle-treated control MelanoDerms, melanin pigment was more evenly distributed throughout the entire epidermis and no visible melanin accumulation was observed around melanocytes (FIG. 3B). […] Therefore, NRG-1 leads to visible increases in pigmentation in the MelanoDerms which was greater as the skin had more constitutive pigmentation.

ERBB3 = ERBB3 protein level by western blotting in melanocytes; format: cell-based, human; details: NRG-1 50 ng/ml, 5 days
Description: as §1, §2

B1: NRG-1: commercially available recombinant human neuregulin-1 (rhNRG-1-β1, R&D Systems), SEQ ID NO: 11 (protein)
chain: TSHLVKCAEKEKTFCVNGGECFMVKDLSNPSRYLCKCPNEFTGDRCQNYVMASFYKHLGIEFMEAEELYQK
Levels of ERBB4 expression (ERBB4): did not change | Melanocyte growth in MelanoDerm skin model ([1]; MelanoDerm, NRG-1): did not increase melanocyte growth | Melanocyte morphology, bright field microscopy ([1]; MelanoDerms, NRG-1 50 ng/ml, vs vehicle-treated control): more abundant cytoplasm with thicker dendrites | ΔL (pigmentation, L value) ([1]; dark MelanoDerms, NRG-1 50 ng/ml): −3 | ΔL (pigmentation, L value) ([1]; light MelanoDerms, NRG-1 50 ng/ml): −1 | ΔL (pigmentation, L value) ([1]; medium MelanoDerms (Asian skin), NRG-1 50 ng/ml): −2 | ERBB3 expression level (ERBB3; HEM-DP): not affected | ERBB3 expression level (ERBB3; HEM-LP): no detectable change
